Measurements taken from the DeepSol protein solubility set.

Assay: soluble on expression in E. coli; label from the status in PepcDB or PDB records

Soluble on expression in E. coli, not soluble:
MGSDKIHHHHHHMTNHQHPQTTTQWIDLIANSELPAITSTARMLDKFSNDDKSSLPKLSEAILHDQGLSSCLLKVANNIQHISINKVTTVSRASVVLGIQSVKNICLTAKLVSSLLASKSLDINVYEQLTQLMANSFYAGMLAKMMVPNYSEEIQEEVYLAAMLYRIGESAFWSAGGDVAKKLANYEAKSPQDFNQYCRKEMGTNFSELSKGLAGTWNLSDLLIKALDQPTTRTDEVKVIYFADKLSAIIAKPEGCEEDYHKLLKEIAYIVGISVRQLTVRIEHTREQAEKLLSSYGAEILTERINSLPTAEDFKSLGGDFDTREVVSKDKALLNGFMKLTKLIQNSKDFNEYLQLTLESLALTFAFDRSSFLMLVDDRARVKSRLVVNKNAQDDASKINIDIKHSDNVIARVISTDTAALINDHQEIRWRDLVTEEISEVIVEGAIAFVPVKIGGKAIGVICLQLLSPDQKIETQDFQQICAFIDHLNMCLTMIKYS
MGSDKIHHHHHHMTNIPFIYQYEEKENERAAAGYGTFGYLITRIEETLYDQYGVFYELYASDDPNTEYWELLVEDVRSGSLEPEHVAYIFEKLEKKTFAYDEDEKEPDYTVHKSIRNSVYAYPEKGVAFARIPYFQDGSIMSFDCLFAVNDEKMRAFLEGVRPRLWEKSKRKVTVFTDGDGGTSREQEAIVREVQRSQVIMNPLLKKEIYRSIDQFFHSDKSFYQTYDIPYKRGILLYGPPGNGKTTLVKSIAGSIDAPVAYWQITEFTSSETIEEVFQAARRLAPAVLVIEDIDSMPEDVRSFFLNTLDGATSKEGLFLIGTTNYPEEIDPGLMNRAGRFDRAYEIGLPDEELRLEYMKMRGFGIFLSEGEIKNAAKLTEGFSFAQLGELYVSSALQWHQEGNHHIETMVKDMTGEQRKSQRGSWMERNKVGFH
MGSDKIHHHHHHMTPTMSNIATLDDVRYQEHILQGVSRTFALTIPQLPPALREVVGNAYLLCRIVDTVEDDSALTLEQTRELAEMFIEVVSGTVEAETFARALYPLLSEHTIPAEHDLIKHTPSVIRMTHSFNPVQRQALERCIRIMGQGMAAYQESESLSGLENLAEMDRYCYHVAGVVGEMLTELFCDYSPEINQHKPALMQLSVSFGQGLQMTNILKDIWEDRKRGACWLPRDIFLQEGFDLNDLQPGCPERGFHAGLGTLIGIAKTHLQNALAYTCLIPSHEAGVRRFCLWAIGMAVLTLNKINHKRDFITGREVKISRRSVRATVLITSLLASQDWALKKIFAISSRNLPEVQIARS
MGSDKIHHHHHHMTQELTFSIKSLRFDEDYRPAANTRNTTNFANLARGQRRQENLRNTLAMINNRFNDLAHWDNPKRDRYAVELDIISVEMKIGERDTGDAFPLIEILQPSILDQTTGARIDGIAGNNFSSYVRDYDFSVLLPAHNQDTSSFSLPEGFGSLHGTLFKQFVNSDTYTARFAKPPVICISVSSSKVYHRTGNRHPILGVEYRQDAFSLTDQYFEKMGLQVRYFMPPNSVAPLAFYFLGDLLNDYTNLELIGTISTMETFQKIYRPEIYNANSAAGTIYQPSLKHQDYSATQIVYDRQERSQLAVTQGKFTQEHFIKPYGDILEQWASSHAFSSTPTQDIAHHE
MGSDKIHHHHHHMTQPFIPEQEYKRTDLHKQYGGNAQSGISNCANYPYIFIFSGVTGKQHGYKDGWENPNVFEYTGEGQMGDMSFTRGNLALRDHIDNGKQVFLFQYQRSGIVKYICELEFYDTDYFPTHDSSKQLRVGIRFFLKRKGAILPSVKELNQSTDFLAAESIPFYGIDSIKETSRKGEVNLRVGQGAYRKSIIHHWQYKCAVTGFDKLNLLNASHIHPWKDATDKERLDVNNGILLSPTYDALFDKHLISFENDGKIILSDTIHFSAYQKIGVTGKEKIKELNSNSILYIEKHRHLLLKY
MGSDKIHHHHHHMTQPFKDAISICKTILRNGYDAYVVNMRLQSELMAEDKRMEIDLACECDFDEIARLFPNATRSDEEGVLAMLEEGGVAHRFYLTDTEESSYPDRTLMRITPHMVARLQALGKAHSSLTLPYGAAAPHDSDDFESFDKGIIRLRGLPDETLRRNYLLAVRAIRYAANLDMEIDPVTWIAIVRSAGRVLDYVPVSDIVAEWQMVEAETMWKFVRLLFDAQLLHGLLPEVAALARVRQSRNDSGDTETVLDHTIECMRHYPEEGFHHDWYGTLAMLFHDVGKLFTADFHDGQWTFYQHHRVGAKVTRRLLHRLHLPAQEVDLICHLVRHHMRFHFMLTDKGIRRFAALDEYPRLMEMARADIKARDGSYTYFNHNQKYLERAATPEQMLEPLLNGNEIMQHTGLHPGPQVGLIRDALLNAQVTGAVADVNDAVAFIKEYKRQYFS
MGSDKIHHHHHHMTQQVINSTSKNHLSPLENQKRYRVVLVHPSAGVNWSGGSEIFAIELARHLNSYFNVELLSGADCGSFSFPSGGISRTQAFNIVRHPLISKLLSRFASHPEIVIEHLSNFFPCAIQLLTKSADLIFPCNDYGGMAMAAFVRAIKGTPILFTEHVGLLGGGKSLTRNLRFHPDQLVVFSEAMAEFVRSVQPQQKVSIIPNGVDINRFTPVGNYINFGLPKPIVLCVASLKRHSHKRIGLAMEAVARLPQISLLLCGDGIDRDYFQAKGDELLGKERFKIQSFPYEQMPTVYRSADVFTLPSIDEPFGLAYVEAMASGLPVIATDDEMRRQIVGDAGRLCDVTNPDIYAAAIREILTQDWQVRARQKALGFSWENIALRYRELILKTIQGDQQNH
MGSDKIHHHHHHMTQRTFTPPWWARNPHVQTILPVLTKVNKPALTRQRLELEDGDFIDLDWLAKPTQTAPTQIEPIVVLVHGLEGSADSHYARRLLTLLDDHKVAALVHHHRSCSGVTNRLARSYHSGDTQDLHTTLSQLRRDYPDSPLLAVGYSLGGNVLTKYMGEHGSDSLVDRAVVISAPLQLGACAKRLRHGFSKVYQSYLIKQLQQKVRDKLALPDLSAQMPVTQAEVESLTTFHLFDDRVTAPLHGFDGVEDYYRRASGLPYLSQVAKPTLVIHAKDDPFMTDEVIPTQEALSPQVTYELHPQGGHVGFIDGGHPFKPRYYLEQRIVHFLLEA
MGSDKIHHHHHHMTREKSSYAVQTVEKALDILETLTDESRHATLPYLAEKLDLSRNKAFRLLATLESKGLVERDETSGVYRLGISSVELAQRLLNSTSLIRHAHPIMERLARKHDEAVYIAVLKGDEVLFLDMVDCEQAIKTAPLVGRRFPFFSNAAGKAIRALESTDLLDRFLKKRGRNGGPFDPAALQQELKAVREHGVAVDFDGLGEGIVSVAVAVRDYAGKVIGALTMLGPSFRMMASRMENEIIPSLREGAEILSMKFGYAKL
MGSDKIHHHHHHMTSARRMLIDANTTPFYHVINRCVRRAFLCGEDKLTGRSYEHRRGWIVDKIKALSAIFCIDICAYAVMSNHYHLVLKIDVEKAKSLTQKDIISRWCQITKGHAIATKYMNGDALIEGERMLLDALIAEWHERLSSISWFMRCLNEEIARKANREDECKGAFWEGRFKSQALLDEQALLACMMYVDLNPIRAGIADSLQSSDFTSIQERMNSLNTHSIAPKLAKITVDNTLSIPHKSLAKFEGATHIHQQTGIPFHFADYLELIDWTGRAIRHDKKGFIDNLRPKLLNELGIASDAWLLSAKEFRRQYSGVSGRWDAMCAFKHKQGGKWCRGKSHSQALHPEQINGLTLR
MGSDKIHHHHHHMTSILPLPDPQPSDATNTDTSSLNWEEELDSAIFSFEDIQAELNYKQAQSALRNLVGNIDLSSQEKAGLESEIADLETMLGKLDSMVVQIAAFGMVGRGKSSLLNALVGESVFETGPLHGVTRAAQRVNWRISEEAIGETERALRVTLPSVGRSQVELIDTPGLDEIDGETRTALAEQIAKQADLILFVISGDMTKIEHEALSQLREAGKPIILVFNKVDQYPEADRMAIYQKIRDERVRELLTPLEIVMAAASPLVKTAVRRPDGSRGVQVRTGNAQVAELQVKILEILQREGKALVALNTMLFADNVNEQLVQRKLMIREQNANQLIWKAVMTKAVAIALNPVTVVDILSSIVIDVSLILGLSKLYGIPMTEAGAVQLLQKIALSMGGIGVSELLANLGLSGLKTLLGISATATAGVAIGPYISVALTQAGVAGVSSYAIGQVTTVYLANGATWGPDGPKAVINRILSTLDENSILNRIKDELQVKLRRE
